The subject of one series is pyrophosphatase (PPase). The conditions noted are these: cited from earlier work.
The test system of series [1] is UltraScript 2.0 Reverse Transcriptase. The conditions noted are these: 150 ng conjugate, RTase 324 nM, 30 min at 25, 43, 55 and then 35° C.; loss of product peak.
Procedure: The reaction was performed using the UltraScript 2.0 Reverse Transcriptase from PCR Bio (UK), according to the instructions of the manufacturer. General conditions were, for a 20 μl total reaction volume:
RNA=5 μg template plus random hexamer primers, in PCR Bio buffer mix.
Individual reaction vials were kept at the set temperature for 30 min and the reaction allowed to proceed. The temperatures used were 25° C., 43° C., 55° C. and 35° C., the latter being done after the 55° C. step. After each incubation, 1-2 μl of cDNA product was taken for qPCR amplification and quantification. Inhibition detected by observing loss of product peak.

With “pyrophosphatase [unconjugated free enzyme]”, the optimum temperature with pyrophosphatase (PPase) is 45 °C.
Turning to “zidovudine-poly-N-isopropylmethacrylamide”, the “RTase inhibition, thermal reversibility” value in series [1] is “inhibition was reversible”.

Source of the values: patent US20220372549A1, “Thermally Responsive Conjugates” (MIP Diagnostic Limited, priority 2019, published 2022).
